# B1: Hairpin Ribozyme (parent)
# chain: GUCCUCUUUCACGUGCGCGUGAAAGAGAGAAGUGAACCAGAGAAACACACGUUGUGGUAUAUUACCUGGUA
# Variants of: B1
# Test: self-cleavage, relative activity (ratio to wild type); higher = more cleavage; co-transcriptional
row,Variant,self-cleavage
1,C18U C66A,0.25
2,G19A C46G,0.176
3,C18G G68A,0.268
4,C18U A59G,0.148
5,C18G C48A,0.146
6,C18G C48U,0.11
7,C18G C48G,0.138
8,G19A A41U,1.11
9,C18U G68U,0.307
10,C18U G68C,0.221
11,C18U G68A,0.224
12,G19A C37G,0.188
13,G19A A64C,0.181
14,C18A G42A,0.203
15,C18U A43G,0.103
16,C18G A22U,0.801
17,C18U,1.06
18,C18G,0.931
19,C18G G40A,0.344
20,C18A G25U,0.761
21,C18A G25C,0.58
22,G19A A59C,0.199
23,C18A G68C,0.18
24,C18G A30G,0.131

row,Variant,self-cleavage
1,C18G A24U,0.729
2,C18A G19C,0.802
3,C18A U60C,1.1
4,C18G U20C,0.923
5,C18A C37A,0.315
6,C18G G69A,0.378
7,C18U U55A,0.128
8,C18U U33A,0.242
9,C18A G32C,0.0795
10,C18G A47U,0.0785
11,C18G A47C,0.242
12,C18U G27U,0.303
13,G19A C50A,0.278
14,C18G U53C,0.806
15,C18G U53A,1.02
16,C18G U53G,0.819
17,G19A C38U,0.508
18,C18G A45G,0.0821
19,G19A A30C,0.146
20,G19A A30G,0.149
21,C18U G69C,0.334
22,C18U G69U,0.272
23,C18G A35G,1.24
24,C18U A49U,0.141

row,Variant,self-cleavage
1,C18G G51A,0.933
2,C18G G51U,0.953
3,G19A A28U,0.408
4,G19A A28G,0.934
5,C18U A47C,0.474
6,G19A A35G,1.01
7,G19A A35C,0.987
8,G19A A35U,0.607
9,C18U A44U,0.15
10,C18U A44G,0.113
11,C18G A61U,0.247
12,C18A U63C,0.0808
13,G19A C65G,0.324
14,G19A C65A,0.748
15,G19A C65U,0.265
16,G19A A26G,0.932
17,G19A A26C,0.541
18,C18U G19C,0.89
19,C18U A64G,0.71
20,C18U A64U,0.109
21,C18U A64C,0.216
22,C18A G29C,0.118
23,C18A G29A,0.149
24,C18U G25U,0.69

row,Variant,self-cleavage
1,C18G A59U,0.239
2,C18G A59G,0.284
3,G19A G27U,0.237
4,C18U A30G,0.151
5,C18U A30C,0.21
6,C18U C38A,0.111
7,C18U G51C,0.881
8,C18U G51A,1.26
9,C18A G27C,0.165
10,C18A G27A,0.534
11,C18A U67C,0.274
12,C18G U70A,0.885
13,C18G A41C,0.952
14,C18U A39G,0.375
15,C18G A71G,0.932
16,C18U U58C,1.17
17,C18U U58G,0.991
18,C18U A23G,0.857
19,G19A A24U,0.629
20,G19A G25C,0.419
21,G19A G25U,0.441
22,C18A U70G,0.862
23,G19A A23G,0.948
24,C18A U52C,1.05

row,Variant,self-cleavage
1,C18G G27U,0.199
2,C18G U58G,0.89
3,C18G U58A,0.632
4,C18U U70C,0.984
5,C18A G40U,0.174
6,C18A G40A,0.305
7,C18G C46A,0.0797
8,C18G C46G,0.0987
9,C18U A28G,1.26
10,C18G G54C,0.471
11,G19A G32U,0.175
12,G19A G32A,0.131
13,C18U A61G,0.276
14,C18U C50A,0.314
15,C18U A36G,1.15
16,C18U U67C,0.249
17,C18U U67A,0.109
18,C18U G57A,0.188
19,C18U G57U,0.234
20,C18U A41C,1.09
21,C18A G34U,1.46
22,G19A A36C,0.511
23,G19A A36U,0.542
24,C18G G29U,0.201

row,Variant,self-cleavage
1,C18U U63G,0.278
2,C18U U63C,0.18
3,C18U U63A,0.229
4,C18G A36G,0.68
5,C18G U63A,0.147
6,G19A,0.853
7,C18U G40C,0.0598
8,G19A A43G,0.16
9,G19A A43U,0.102
10,C18G U33A,0.169
11,G19A A39G,0.274
12,G19A A39C,0.437
13,G19A G21C,0.673
14,C18U G34U,1.46
15,C18G G34A,1.23
16,C18G A26C,0.489
17,G19A A44G,0.137
18,G19A A44U,0.269
19,C18U C65A,0.88
20,C18U C65G,0.27
21,C18A U58C,1.07
22,G19A G29U,0.21
23,C18U A45C,0.218
24,C18U C48G,0.0965

row,Variant,self-cleavage
1,C18U G29U,0.172
2,C18U G29C,0.116
3,C18A G54A,0.591
4,C18A C65U,0.254
5,C18U U20A,0.848
6,C18U U20C,1.06
7,C18G C66A,0.194
8,C18A G57C,0.187
9,C18A G57A,0.209
10,C18U A35C,0.968
11,C18U A35G,0.986
12,C18A U53C,1.01
13,C18A C48U,0.214
14,C18U U62C,0.393
15,C18U A24C,1.21
16,C18U C46G,0.145
17,C18G U52G,0.538
18,C18G U67A,0.229
19,C18G U67C,0.212
20,C18U G32C,0.142
21,G19A A47G,0.183
22,C18A A71U,0.831
23,C18G A31C,0.0659

# — the RNAGym collection of RNA variant scans (doi:10.7554/elife.80360)
